Where two headings read alike, the source gives them in different places. Values belong to the molecule of their own block, whether it stands above or below them. Where no end group is shown, it is not given here. [ ]: non-standard residue; d: D form.
What was measured:
[1] = test system: primary murine anterior pituitary cells; format: cell-based; conditions: cultured rodent pituitary cells, read-out: EC50, secretion of ACTH
Description: A straightforward assay using rat anterior pituitary cells in monolayer culture can be carried out to determine whether a candidate peptide thereof will function as a CRF agonist and stimulate ACTH secretion by activating CRF receptors on such cells. The procedure which is used is that generally set forth in Endocrinology, 91, supra. A very similar assay is used to test for antagonistic properties, using a challenge dose of oCRF or the like.
To test the ability of purified Ucn or another candidate Ucn-like peptide to function as a CRF agonist and to promote ACTH production and/or secretion, cultures of dispersed primary murine anterior pituitary cells (0.15×10^6 cells/well are used), as generally described in Vale et al. Meth. Enzym., 103, 565-577 (1983), and in Endocrinology, 91, 562 (1972). These cultures are maintained in 0.5 ml/well of β-PJ (a reagent available from Kansas City Biochemicals) containing 2% fetal bovine serum. On the morning of culture day 5, the cells are washed 3 times with β-PJ containing 0.1% bovine serum albumin and then incubated for 1 hour at 37° C. in the same medium. The medium is then replaced with Ucn, or an analog thereof, diluted in β-PJ containing 0.1% bovine serum albumin. Incubations are terminated after 3 hours, at which time the medium is removed and stored at −20° C. until ACTH radioimmunoassays are performed using a suitable kit, such as that commercially available from Diagnostic Products Corporation of Los Angeles, Calif. Secreted ACTH is measured using Allfit computer program with results expressed as the average±s.e.m. of 3 replicate bioassays.

[2] = test system: human CRF-R2β; test: competitive displacement binding assay, CRF-R2β stably expressed in CHO cells; conditions: read-out: Ki (95% confidence limits); CRF-R2β in stably transfected CHO cells; displacement of [125I-Tyr0]Ucn
Protocol: Binding assays with cells expressing human CRF-R1 are carried out as described in the Chen et al. P.N.A.S., supra. The affinities of test peptides for CRF-R1 and CRF-R2β stably expressed in CHO cells were determined by competitive displacement of ^125I-(Nle^21, Tyr^32) ovine CRF (for CRF-R1) or of [^125II-Tyr^∘]Ucn (for CRF-R2β) as described.

[3] = molecular target: T1, murine CRF-R2β (Mus musculus, UniProt Q60748); test: elevation of intracellular cAMP in cells expressing mCRF-R2β; format: cell-based; conditions: read-out: ED50, elevation of cAMP
T1 construct: expressed in transfected cells
T1 sequence (Q60748 1-431 isoform Q60748-2): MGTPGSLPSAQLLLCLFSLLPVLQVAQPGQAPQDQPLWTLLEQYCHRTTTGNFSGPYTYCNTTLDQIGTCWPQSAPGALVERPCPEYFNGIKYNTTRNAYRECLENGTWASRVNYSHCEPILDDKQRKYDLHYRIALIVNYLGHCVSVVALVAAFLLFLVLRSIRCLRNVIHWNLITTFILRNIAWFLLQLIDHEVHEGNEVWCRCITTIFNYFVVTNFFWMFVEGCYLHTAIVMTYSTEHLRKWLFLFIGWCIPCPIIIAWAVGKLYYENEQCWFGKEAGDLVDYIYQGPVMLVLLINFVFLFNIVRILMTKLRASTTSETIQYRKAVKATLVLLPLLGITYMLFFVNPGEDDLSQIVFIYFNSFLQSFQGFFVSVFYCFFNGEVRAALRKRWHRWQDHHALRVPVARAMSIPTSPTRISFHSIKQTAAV
Description: CRF-R is used to refer to a family of receptor protein subtypes which participate in the G-protein-coupled response of cells to CRF and Ucn-like ligands. CRF-Rs are coupled by heterotrimeric G-proteins to various intracellular enzymes, ion channels, and transporters. The G-proteins associate with the receptor proteins at the intracellular face of the plasma membrane. An agonist binding to a CRF-R catalyzes the exchanges of GTP for GDP on the α-subunit (G-protein “activation”), resulting in its dissociation and stimulation of one (or more) of the various signal-transducing enzymes and channels. G-protein preferentially stimulates particular effectors, and the specificity of signal transduction may be determined, therefore, by the specificity of G-protein/receptor interaction. CRF-R proteins mediate signal transduction through the modulation of adenylate cyclase and perhaps through PI turnover. For example, when CRF or Ucn binds to and activates the CRF-R, adenylate cyclase causes an elevation in the level of intracellular cAMP. […] Such transformed cells are monitored for either an increase or decrease in the level of intracellular CAMP which provides a determination of the effectiveness of the potential agonist or antagonist. Methods for measuring intracellular levels of cAMP, or measuring cyclase activity, are well known in the art.

[4] = molecular target: human CRF-R2β, stably transfected CHO cells (human) (UniProt Q13324); test: competitive displacement of [125I-Tyr0]Ucn from stably transfected CHO cells expressing human CRF-R2β; 95% confidence limits in brackets
[5] = test system: rats; test: ACTH secretion in vivo, ACTH level in plasma; conditions: 5 μg/kg dose, at 30 minutes
[6] = molecular target: CRF receptors on anterior pituitary cells in culture; test: cell-based or functional assay
[7] = molecular target: T2, human CRF binding protein (human, UniProt P24387 25-322); test: competitive hCRF-BP ligand binding assay with [125I-DTyr0]hCRF
T2 construct: also called hCRF-BP; CRF-BP
T2 sequence (looked up): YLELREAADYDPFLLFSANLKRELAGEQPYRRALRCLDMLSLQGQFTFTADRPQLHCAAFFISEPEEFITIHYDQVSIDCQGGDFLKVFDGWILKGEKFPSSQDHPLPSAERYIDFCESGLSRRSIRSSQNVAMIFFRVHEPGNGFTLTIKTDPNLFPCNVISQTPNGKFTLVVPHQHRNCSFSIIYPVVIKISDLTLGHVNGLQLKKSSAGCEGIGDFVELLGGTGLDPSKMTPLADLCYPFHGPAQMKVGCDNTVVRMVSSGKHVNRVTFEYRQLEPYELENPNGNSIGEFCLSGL
Protocol: After incubating with the primary and secondary antisera for 30 minutes each, 1 ml of saline wash is added, and the test tubes are centrifuged at 2000× g for 20 minutes at 4° C. Precipitates are counted in a gamma counter. Inhibitory binding affinity constant (Kᵢ) values are determined using parameters calculated by the LIGAND computer program, Munson et al., Anal. Biochem., 107, 220 (1980), and a Vax/VMS computer system.

[8] = molecular target: T2, human CRF binding protein; test: competitive hCRF-BP ligand binding assay with 125I[Nle21,Tyr32]-oCRF

- EC50 ([1]; no unit printed for this value): 0.017 ± 0.003 nM
- EC50 [3]: 0.74 nM
Molecule: H-NDDPPISIDLTFHLLRNMIEMARIENEREQAGLNRKYLDEV-NH2 [sfUI, reference compound]
- Ki [2]: 3 nM

- Ki [4]: 0.41 nM
Molecule: rat urocortin (rat Ucn) (peptide)

- EC50, secretion of ACTH in cultured rodent pituitary cells [6]: 0.006 nM
Molecule: DDPPLSIDLTFHLLRTLLELARTQSQRERAEQNRIIFDSV-NH2 [rat urocortin (rat Ucn)]

- binding result [7]: binds
Molecule: PPLSIDLTFHLLRTLLELARTQSQR (Printed without NH2) [Ucn(3-27)]

- EC50, secretion of ACTH in cultured rodent pituitary cells [6]: 0.043 nM
- binding result [8]: binds
Molecule: SEEPPISLDLTFHLLREVLEMARAEQLAQQAHSNRKLMEII-NH2 (also called r/hCRF; rCRF) [rat/human CRF]

- binding result [7]: binds
Molecule: LSIDLTFHLLRTLLELARTQSQRERAEQ (Printed without NH2 at the C-terminus) [Ucn(5-32)]

Continued, molecule first:

Molecule: CC[C@H](C)[C@H](NC(=O)[C@@H](NC(=O)[C@H](CC(=O)O)NC(=O)[C@H](CC(C)C)NC(=O)[C@H](CC(C)C)NC(=O)[C@H](CC(C)C)NC(=O)[C@H](CCCNC(=N)N)NC(=O)[C@H](CC(N)=O)NC(=O)[C@H](CC(N)=O)NC(=O)[C@H](C)NC(=O)[C@H](C)NC(=O)[C@H](CCC(N)=O)NC(=O)[C@H](CCC(N)=O)NC(=O)[C@H](CCCCN)NC(=O)[C@H](CCC(=O)O)NC(=O)[C@H](CCCCN)NC(=O)[C@H](CCC(=O)O)NC(=O)[C@H](CCC(N)=O)NC(=O)[C@H](CCCCN)NC(=O)[C@H](CCC(=O)O)NC(=O)[C@@H](NC(=O)[C@H](CCC(=O)O)NC(=O)[C@@H](NC(=O)[C@H](CCSC)NC(=O)[C@H](CCCCN)NC(=O)[C@H](CCCNC(=N)N)NC(=O)[C@H](CC(C)C)NC(=O)[C@H](CC(C)C)NC(=O)[C@H](CCC(=O)O)NC(=O)[C@H](CC(C)C)NC(=O)[C@H](CO)NC(=O)[C@H](CC(C)C)NC(=O)[C@H](CC(=O)O)NC(=O)[C@@H](NC(=O)[C@H](CO)NC(=O)[C@@H](NC(=O)[C@@H]1CCCN1C(=O)[C@@H]1CCCN1C(=O)CNC(=O)[C@@H]1CCC(=O)N1)[C@@H](C)CC)[C@@H](C)CC)[C@@H](C)CC)[C@@H](C)CC)[C@@H](C)O)C(N)=O [sauvagine, reference compound]
- EC50 ([1]; incubation 3 hours, average±s.e.m.): ~0.033 nM
- Ki [2]: 2 nM

Molecule: CC[C@H](C)[C@H](NC(=O)[C@@H](NC(=O)[C@H](CCC(=O)O)NC(=O)[C@H](CCSC)NC(=O)[C@H](CC(C)C)NC(=O)[C@H](CCCCN)NC(=O)[C@H](CCCNC(=N)N)NC(=O)[C@H](CC(N)=O)NC(=O)[C@H](CO)NC(=O)[C@H](Cc1c[nH]cn1)NC(=O)[C@H](C)NC(=O)[C@H](CCC(N)=O)NC(=O)[C@H](CCC(N)=O)NC(=O)[C@H](C)NC(=O)[C@H](CC(C)C)NC(=O)[C@H](CCC(N)=O)NC(=O)[C@H](CCC(=O)O)NC(=O)[C@H](C)NC(=O)[C@H](CCCNC(=N)N)NC(=O)[C@H](C)NC(=O)[C@H](CCSC)NC(=O)[C@H](CCC(=O)O)NC(=O)[C@H](CC(C)C)NC(=O)[C@@H](NC(=O)[C@H](CCC(=O)O)NC(=O)[C@H](CCCNC(=N)N)NC(=O)[C@H](CC(C)C)NC(=O)[C@H](CC(C)C)NC(=O)[C@H](Cc1c[nH]cn1)NC(=O)[C@H](Cc1ccccc1)NC(=O)[C@@H](NC(=O)[C@H](CC(C)C)NC(=O)[C@H](CC(=O)O)NC(=O)[C@H](CC(C)C)NC(=O)[C@H](CO)NC(=O)[C@@H](NC(=O)[C@@H]1CCCN1C(=O)[C@@H]1CCCN1C(=O)[C@H](CCC(=O)O)NC(=O)[C@H](CCC(=O)O)NC(=O)[C@@H](N)CO)[C@@H](C)CC)[C@@H](C)O)C(C)C)[C@@H](C)CC)C(N)=O [r/hCRF, reference compound]
- ACTH level in plasma [5]: 422 ± 66 pg/mL

Molecule: SIDLTFHLLRTLIELARTQSQRER (Printed without NH2 at the C-terminus) [[Ile18]-Ucn(6-29)]
- binding result [7]: binds

Molecule: DLTFHLLRTLLELARTQSQRERAEQ (Printed without NH2 at the C-terminus) [Ucn(8-32)]
- binding result [7]: binds

B1: [D-Phe11]-Ucn(11-40) (peptide)
peptide: [dF]HLLRTLLELARTQSQRERAEQNRIIFDSV-NH2
modifications: N-terminus assumed
SMILES: CC[C@H](C)[C@H](NC(=O)[C@H](CCCNC(=N)N)NC(=O)[C@H](CC(N)=O)NC(=O)[C@H](CCC(N)=O)NC(=O)[C@H](CCC(=O)O)NC(=O)[C@H](C)NC(=O)[C@H](CCCNC(=N)N)NC(=O)[C@H](CCC(=O)O)NC(=O)[C@H](CCCNC(=N)N)NC(=O)[C@H](CCC(N)=O)NC(=O)[C@H](CO)NC(=O)[C@H](CCC(N)=O)NC(=O)[C@@H](NC(=O)[C@H](CCCNC(=N)N)NC(=O)[C@H](C)NC(=O)[C@H](CC(C)C)NC(=O)[C@H](CCC(=O)O)NC(=O)[C@H](CC(C)C)NC(=O)[C@H](CC(C)C)NC(=O)[C@@H](NC(=O)[C@H](CCCNC(=N)N)NC(=O)[C@H](CC(C)C)NC(=O)[C@H](CC(C)C)NC(=O)[C@H](Cc1c[nH]cn1)NC(=O)[C@H](N)Cc1ccccc1)[C@@H](C)O)[C@@H](C)O)C(=O)N[C@H](C(=O)N[C@@H](Cc1ccccc1)C(=O)N[C@@H](CC(=O)O)C(=O)N[C@@H](CO)C(=O)N[C@H](C(N)=O)C(C)C)[C@@H](C)CC
- antagonism of ACTH secretion under a challenge dose of ovine CRF, potency relative to the Standard Antagonist [D-Phe12, Nle21,38]-r/hCRF(12-41) (times Standard Antagonist) [6]: 0.551

Reference: patent US20030032587A1, “Urocortin peptides” (The Salk Institute for Biological Studies, priority 1995, published 2003)
